Laboratory results from article PMC9226200.
“And” between values parts separate entries of the source, which are not always exact repeats. Equal values may be shown once.

Target: PKM2 (mouse (endogenous in splenic B cells of C57BL/6J mice)) (UniProt P52480)
Assay: cross-linking; lysates of purified CD19+ splenic B cells from C57BL/6J mice cultured with or without Hcy (100 μmol/L) for 24 h, cross-linked with glutaraldehyde; Western blot for PKM2 oligomer states

PKM2, P52480 1-531 (enzyme; other documents disagree on this pair), sequence (P52480 whole entry): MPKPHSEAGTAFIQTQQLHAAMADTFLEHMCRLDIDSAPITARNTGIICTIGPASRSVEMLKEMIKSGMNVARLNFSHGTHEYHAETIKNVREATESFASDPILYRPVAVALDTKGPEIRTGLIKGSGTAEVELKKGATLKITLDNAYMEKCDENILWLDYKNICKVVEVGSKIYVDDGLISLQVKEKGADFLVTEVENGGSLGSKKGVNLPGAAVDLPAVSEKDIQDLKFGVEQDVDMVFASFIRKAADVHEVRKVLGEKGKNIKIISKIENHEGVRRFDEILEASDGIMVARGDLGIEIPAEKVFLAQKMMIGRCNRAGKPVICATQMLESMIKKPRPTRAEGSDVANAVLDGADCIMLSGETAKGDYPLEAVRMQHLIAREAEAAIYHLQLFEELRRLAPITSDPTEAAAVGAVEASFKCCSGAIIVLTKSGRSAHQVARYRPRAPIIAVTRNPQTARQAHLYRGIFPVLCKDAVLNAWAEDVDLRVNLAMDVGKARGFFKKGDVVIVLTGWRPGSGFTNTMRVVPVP

PKM2, P52480 1-531 (enzyme; other documents disagree on this pair)
stoichiometry N: 4 and 2
